Results taken from publication doi:10.1101/2025.08.05.25330579.

What was measured:
RBM10 RRM2 R332C = molecular target: T1, RBM10 RRM2 R332C (UniProt P98175 300-384, R332C); assay: ITC and NMR
T1 sequence: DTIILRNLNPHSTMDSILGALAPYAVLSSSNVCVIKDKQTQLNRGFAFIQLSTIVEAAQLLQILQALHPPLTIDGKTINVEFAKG

RBM10 RRM2 WT = molecular target: T2, RBM10 RRM2 WT (UniProt P98175 300-384); assay: ITC
T2 sequence: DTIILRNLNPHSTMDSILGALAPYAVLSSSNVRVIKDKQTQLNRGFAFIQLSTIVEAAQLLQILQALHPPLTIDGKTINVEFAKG

## UUGUCUGCUCCC (ssRNA) [NUMB exon 12-derived 12mer RNA]
RBM10 RRM2 R332C
  binding signal: > 20 fold reduced affinity vs WT
RBM10 RRM2 WT
  binding result: binds
